Data on four molecules can be found in publication PMC4117942 (Genes & Development, 2014).

To fix the notation:
B1: D. melanogaster Rhino chromodomain (19–85) (domain or fragment)
chain: DHVEEYVVEKILGKRFVNGRPQVLVKWSGFPNENNTWEPLENVGNCMKLVSDFESEVFRLHRKAAAK

The target of data set [1] is Rhino chromodomain (23–85) (D. melanogaster) (UniProt Q7JXA8). The data set is described as follows: ITC. Background: In ITC the heat of successive injections is recorded.
The data set “crystal structure” deals with the molecule itself. The data set is described as follows: crystal structure.
Data set [2] has as its target B1. The data set is described as follows: crystal structure.

For “H3(1–15)K9me3 peptide (from UniProt P02299 2-16)”, in data set [1], the dissociation constant Kd (usually the equilibrium constant for the complex coming apart) worked out at 21.8 µM.
“H3(1–15)K9me2 peptide (from UniProt P02299 2-16)”: the Kd in data set [1] stood at 28.4 µM.
Regarding B1, the binding result in the data set “crystal structure” was “binds”.

B2: H3(1–15)K9me3 peptide (peptide)
peptide: ARTKQTARKSTGGKA
modifications: trimethyl-lysine at 9 (K9me3)
For B2, the binding result in data set [2] was “binds”.
